Laboratory results from publication PMC4116807 (Biochimica et biophysica acta, 2014).

Target: the molecule itself
Experiment: AUC

B1: periplasmic sensor domain of the histidine kinase CusS (CusS 39-187) (domain or fragment, Escherichia coli W3110)
chain: VKVHFAEQDINDLKEISATLERVLNHPDETQARRLMTLEDIVSGYSNVLISLADSQGKTVYHSPGAPDIREFTRDAIPDKDAQGGEVYLLSGPTMMMPGHGHGHMEHSNWRMINLPVGPLVDGKPIYTLYIALSIDFHLHYINDLMNKLEGSS
stoichiometry N: 2
